The results in this text go back to patent publication US20240100176A1 (Eli Lilly, published 2024).

Test [1] addresses T1, hexahistidine-tagged human IL-4Rα extracellular domain (human, UniProt P24394 26-232).
T1 construct: In the MSD assay the plate coat is the His-tagged ECD; also called human IL-4Rα ECD; Wild type receptor; not shown: hexahistidine tag
T1 sequence: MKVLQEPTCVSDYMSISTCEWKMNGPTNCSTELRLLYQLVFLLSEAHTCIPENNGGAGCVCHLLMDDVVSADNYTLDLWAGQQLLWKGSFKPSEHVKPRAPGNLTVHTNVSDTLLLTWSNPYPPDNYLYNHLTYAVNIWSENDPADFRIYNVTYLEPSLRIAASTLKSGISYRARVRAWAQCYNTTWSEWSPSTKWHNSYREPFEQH
The test can be described thus: competition MSD ELISA (solution equilibrium, 37 °C), apparent KD, single experiment. The protocol: (§1) Example 3a. […] A 96-well multi-array plate (Meso Scale Diagnostics, Cat. #L15XA-3) was coated at 4° C. overnight with 0.5 μg/mL hexahistidine-tagged human or cynomolgus monkey IL-4Rα ECD in phosphate buffered saline (PBS). Following coating, plates were washed 10 times with 200 μL PBST (PBS with 0.05% Tween® 20) and blocked with 300 μL/well of PBS casein blocking buffer (Pierce, Cat. #37528) at 37° C. for 1 hour. Plates were then washed 10 times as above, and 50 μL of the preincubated antibody:IL-4Rα dilution series was transferred to the wells and incubated at 37° C. with 300 rpm shaking for […]. Plates were washed 10 times with PBST, 50 μL of 1 μg/mL anti-human antibody sulfo-tag 20 (Meso Scale Diagnostics, Cat. #R32AJ-1) was added to the plates for the assay of Table 7a, and anti-Human NHP Kappa Light chain SULFO-TAG 20 (Meso Scale Diagnostics, Cat #D20TF-6) was added to the plates for the assay of Table 7b, and plates were incubated at 37° C. with 300 rpm shaking for 30 minutes. Plates were washed 10 times with PBST, 150 μL/well of 1× Read Buffer T was added to the wells and analyzed on a SECTOR® Imager 6000 (Meso Scale Diagnostics) 15 min after buffer addition. The apparent KD is determined by fitting a sigmoidal curve to the electrochemiluminescence (ECL) response vs. log (soluble IL-4Rα concentration) using GraphPad Prism 9. Data is graphed with normalized ECL values.
Background: In an ELISA, binding on a coated surface is turned into a signal by an enzyme label.

In test [2] the target is T2, hexahistidine-tagged cynomolgus monkey IL-4Rα extracellular domain (cynomolgus monkey, UniProt P24394 26-231 (human entry)).
T2 construct: also called cynomolgus monkey IL-4Rα ECD; not shown: hexahistidine tag
T2 chain: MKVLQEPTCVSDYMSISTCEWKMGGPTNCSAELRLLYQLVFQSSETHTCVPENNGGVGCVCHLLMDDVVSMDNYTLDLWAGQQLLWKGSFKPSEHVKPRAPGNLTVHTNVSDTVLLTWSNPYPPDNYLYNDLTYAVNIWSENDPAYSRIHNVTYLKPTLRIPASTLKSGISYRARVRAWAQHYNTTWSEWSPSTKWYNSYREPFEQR
Described as above. As to the method:
as §1

Test [3] has as its target T3, human IL-4Rα on cells (human PBMC B cells and CD4+ T cells, Daudi cells, HEK-Blue IL-4/IL-13 cells, myeloid … (human, UniProt P24394 26-825)).
T3 sequence: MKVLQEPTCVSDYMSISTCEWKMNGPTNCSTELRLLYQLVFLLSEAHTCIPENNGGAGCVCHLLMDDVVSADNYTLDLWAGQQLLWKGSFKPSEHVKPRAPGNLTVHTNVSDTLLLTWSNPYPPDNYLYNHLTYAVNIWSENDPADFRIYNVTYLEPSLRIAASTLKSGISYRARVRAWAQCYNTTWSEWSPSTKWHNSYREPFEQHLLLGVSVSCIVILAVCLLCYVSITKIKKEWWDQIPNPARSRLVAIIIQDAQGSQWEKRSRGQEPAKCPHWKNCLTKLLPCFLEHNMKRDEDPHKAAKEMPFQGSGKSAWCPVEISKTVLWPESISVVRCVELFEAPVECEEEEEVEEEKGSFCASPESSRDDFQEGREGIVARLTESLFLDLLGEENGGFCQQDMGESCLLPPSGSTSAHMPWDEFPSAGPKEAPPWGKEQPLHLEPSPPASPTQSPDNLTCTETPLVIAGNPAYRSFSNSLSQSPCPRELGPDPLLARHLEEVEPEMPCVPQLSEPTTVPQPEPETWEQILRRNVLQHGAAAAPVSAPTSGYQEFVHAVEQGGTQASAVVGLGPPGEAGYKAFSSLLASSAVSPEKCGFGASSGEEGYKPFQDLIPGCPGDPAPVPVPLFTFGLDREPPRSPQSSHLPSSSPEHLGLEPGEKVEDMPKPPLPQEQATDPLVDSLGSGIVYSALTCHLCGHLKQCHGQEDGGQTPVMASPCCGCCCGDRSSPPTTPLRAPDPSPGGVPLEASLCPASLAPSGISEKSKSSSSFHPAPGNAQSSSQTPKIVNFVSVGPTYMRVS
As to the kind of experiment: flow cytometry on human PBMCs, CD4-positive T cells, Alexa Fluor 647 labelled antibody, percent IL-4Rα positive cells. The protocol:
Example 3b. Binding to B cells and T cells: Binding of the exemplified anti-human IL-4Rα antibodies to B cells and T cells was tested in a Fluorescence Activated Cell Sorting (FACS) assay. […] Freshly isolated cells PBMCs were resuspended at 2×10⁶ cells/mL and allowed to rest for 15 minutes at room temperature, then plated at 100 μL/well into a round bottom 96-well plate (COSTAR®) and washed with FACS buffer (PBS containing 2% fetal bovine serum from Corning®). Exemplified anti-human IL-4Rα antibodies and the respective control IgG antibodies conjugated to Alexa Fluor® 647 according to manufacturer's protocol (Thermo Fisher Scientific) were added to the wells at 66.67 nM and diluted 4-fold in duplicate. Equivalent volume of 2× antibody cocktail containing: Human TruStain FcX™. FITC anti-human CD3 Antibody, Alexa Fluor® 700 anti-human CD4 Antibody (all from Biolegend®) and CD20 Monoclonal Antibody (2H7), PerCP-Cyanine5.5 (Thermo Fisher Scientific) was then added to the wells. Cells were incubated at 4° C. for 30 minutes, washed twice with FACS buffer and resuspended in a final volume of 100 μL FACS buffer. Viability dye, Sytox™ blue (Thermo Fisher Scientific), was added and the samples were analyzed via a flow cytometer (LSRFortessa™ X-20; BD BIOSCIENCES). Data analysis was performed using FlowJo software and statistical analysis was performed using GraphPad Prism 9. […]
For orientation: A flow cytometer gives signals particle by particle.

B1: anti-human IL-4Rα antibody Ab1 (antibody, human IgG4 S228P, kappa)
heavy: QVQLVESGGGLVQPGGSLRLSCVASGFTFSHSSMNWVRQAPGKGLEWVSYISRATGAVYYADSVKGRFTISRDNAKNSLYLQMNSLRDEDTAVYYCAREPVFDYWGQGTLVTVSSASTKGPCVFPLAPCSRSTSESTAALGCLVKDYFPEPVTVSWNSGALTSGVHTFPAVLQSSGLYSLSSVVTVPSSSLGTKTYTCNVDHKPSNTKVDKRVESKYGPPCPPCPAPEFLGGPSVFLFPPKPKDTLMISRTPEVTCVVVDVSQEDPEVKFNWYVDGVEVHNAKTKPREEQFNSTYRVVSVLTVLHQDWLNGKEYKCKVSNKGLPSSIEKTISKAKGQPREPQVYTLPPSREEMTKNQVSLTCLVKGFYPSDICVEWESNGQPENNYKTTPPVLDSDGSFFLYSRLTVDKSRWQQGNVFSCSVMHEALHNHYTQKSLSLSLG
light: DIQMTQSPSAMSASVGDRVTITCRASQDISNYLAWFQQKPGKVPTRLIYAASSLQSGVPSRFSGSGSGTEFTLTISSLQPEDFATYYCLQWSSYPRTFGQGTKVEIKRTVAAPSVFIFPPSDEQLKSGTASVVCLLNNFYPREAKVQWKVDNALQSGNSQESVTEQDSKDSTYSLSSTLTLSKADYEKHKVYACEVTHQGLSSPVTKSFNRGEC
notes: human kappa light chain; also called anti-human IL-4Rα Ab1; unconjugated Ab1
With B1, the Kd is 0.0208 nM in test [1] and 0.0233 nM in test [2]. Further, the midpoint of the response in test [3], the EC50, lay at 26.3 nM.

One may read the EC50 as the concentration that produces a half-maximal response.
